Experimental data from US20260070978A1 (LENTIGEN TECHNOLOGY, published 2026).
Where a chain is given by its changes, count along the chain named.

T1: recombinant human CD19 (human, UniProt P15391 20-291, limits assumed, fluorescent label, kind and site not stated)
T1 construct: soluble labeled antigen titrated on yeast; sorting steps used CD19-Fc, so the labeled antigen may be the Fc fusion; also called labeled CD19; fluorescently tagged antigen
T1 sequence (looked up): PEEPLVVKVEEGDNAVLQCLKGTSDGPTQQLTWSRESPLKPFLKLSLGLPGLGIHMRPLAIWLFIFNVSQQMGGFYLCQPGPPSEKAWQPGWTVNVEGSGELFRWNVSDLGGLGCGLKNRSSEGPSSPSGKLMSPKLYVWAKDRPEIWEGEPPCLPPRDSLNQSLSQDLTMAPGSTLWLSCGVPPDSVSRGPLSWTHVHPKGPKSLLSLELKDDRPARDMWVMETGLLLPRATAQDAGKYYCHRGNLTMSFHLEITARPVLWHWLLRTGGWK

T2: recombinant human CD22 (human, UniProt P20273 20-687, limits assumed, fluorescent label, kind and site not stated)
T2 construct: soluble labeled antigen titrated on yeast; sorting steps used CD22-Fc, so the labeled antigen may be the Fc fusion; also called labeled CD22; fluorescently tagged antigen
T2 sequence (looked up): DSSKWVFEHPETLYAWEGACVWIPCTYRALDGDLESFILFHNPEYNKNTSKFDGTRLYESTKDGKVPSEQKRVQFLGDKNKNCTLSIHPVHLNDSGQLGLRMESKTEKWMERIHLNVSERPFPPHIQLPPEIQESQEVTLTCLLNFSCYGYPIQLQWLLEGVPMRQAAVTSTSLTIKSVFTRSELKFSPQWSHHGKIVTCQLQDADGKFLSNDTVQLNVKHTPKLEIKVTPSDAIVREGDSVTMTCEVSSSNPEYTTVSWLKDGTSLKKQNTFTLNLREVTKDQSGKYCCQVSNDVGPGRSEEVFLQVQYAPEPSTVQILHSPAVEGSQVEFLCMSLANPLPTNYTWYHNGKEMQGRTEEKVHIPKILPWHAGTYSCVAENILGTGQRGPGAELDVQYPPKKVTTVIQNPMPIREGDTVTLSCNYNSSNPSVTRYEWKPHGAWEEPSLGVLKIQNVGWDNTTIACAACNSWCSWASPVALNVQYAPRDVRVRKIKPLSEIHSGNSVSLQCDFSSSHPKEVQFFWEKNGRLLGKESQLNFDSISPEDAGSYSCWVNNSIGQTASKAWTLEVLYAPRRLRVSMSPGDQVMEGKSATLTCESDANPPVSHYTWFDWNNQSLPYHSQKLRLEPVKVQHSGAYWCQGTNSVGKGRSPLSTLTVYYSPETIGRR

B1: human anti-CD19 ScFv binder M19217 (scFv)
chain: EVQLVQSGAEVKKPGASVKVSCKASGYTFTSYYMHWVRQAPGQGLEWMGIINPSGGSTSYAQKFQGRVTMTRDTSTSTVYMELSSLRSEDTAVYYCARSDRGITATDAFDIWGQGTMVTVSSGGGGSGGGGSGGGGSQSVLTQPPSVSVAPGQTAKITCGGSDIGNKNVHWYQQKPGQAPVLVVYDDYDRPSGIPERFSGSNSGDAATLTISTVEVGDEADYFCQVWDSSGDPYWVFGGGTQLTVLG
B2: human anti-CD19 ScFv binder M19217-7 (scFv)
chain: B1 chain with K12N, I50M, A105S, V149L, D189N, A206S, S229G
B3: human anti-CD19 ScFv binder M19217-40 (scFv)
chain: B1 chain with K13R, E46V, I50L, I157T, F223V, S229G
B4: human anti-CD19 ScFv binder M19217-2 (scFv)
chain: B1 chain with L45F, I50L, G56S, S85N, S148P, T158I, S229G
B5: human anti-CD19 ScFv binder M19217-23 (scFv)
chain: B1 chain with S31G, M48I, I50L, A61E, T69A, N166D, S229G, S230I
B6: human anti-CD19 ScFv binder M19217-38 (scFv)
chain: B1 chain with K13R, Q43R, I50L, K63E, T74M, T104S, T154M, D189N, S229G, V245D
B7: human anti-CD19 ScFv binder M19217-29 (scFv)
chain: B1 chain with I50M, V169A, P195S, S229G, Y234F
B8: human anti-CD19 ScFv binder M19217-1 (scFv)
scFv: EVQLVQSGAEVKKPGASVKVSCKASGYTFTSYYMHWVRQAPGQGLEWMGLINPSGGSTSYAQKFQGRVTMTRDTSTSTVYMELSSLRSEDTAVYYCARSDRGITATDAFDIWGQGTMVTVSSGGGGSGGGGSGGGGSQSVLTQPPSVSVAPGRMAKITCGGSDIGNKNVHWYQQKPGQAPVLVVYDDYDRPSGIPERFSGSNSGDAATLTISTVEVGDEADYFCQVWDGSGDPYWMFGGGTQLTVL
notes: also called LTG2065
B9: human anti-CD22 ScFv binder 16P17 (scFv, V domains shown)
VH: QVQLQQSGPGLVKHSQTLSLTCAISGDSVSSNSAAWNWIRQSPSRGLEWLGRTYYRSKWYNDYAVSVKSRITINPDTSKNQFSLQLNSVTPEDTAVYYCAQEVEPHDAFDIWGQGTMVTVSS
VL: DIQMTQSPSSVYASVGDKVTITCRASQDVSGWLAWYQQKPGLAPQLLISGASTLQGEVPSRFSGSGSGTDFTLTISSLQPEDFATYYCQQAKYFPYTFGQGTKLEIK

target: T1, recombinant human CD19; experiment: flow cytometry of yeast-displayed scFv with decreasing amounts of labeled CD19
Protocol: To increase the affinity of m19217, a yeast-display m19217 mutant scFv library was created by using error-prone PCR to create random point mutations in scFv gene sequences. After electroporation, the resulting mutant library was then grown overnight at 30° C. for 16 hours in SDCAA medium and then switched into SGCAA medium at 30° C. for another 16 hours. The mutant library was then sorted through MACS (immunomagentic column, Miltenyi Biotec) with CD19-Fc as the capture antigen to downsize the library and to increase the population of mutants that could bind to CD19-Fc. The strongest binders were then selected by double staining the pools with Anti-c-Myc-Alexa 488 and CD19-Fc/Anti-Hu-Fc and selecting for the binders that had the highest binding affinities as well as c-Myc expression levels. This process was then repeated two more times, until flow cytometry of yeast particles with fluorescently tagged antigen yielded average binding affinities of the mutant pools that were increased over the starting construct. Binding affinities were estimated by flow cytometry of yeast pools using decreasing amounts of labeled CD19.

EC50 [µg/mL]	Binder
0.5	B1
< 0.01	B2
< 0.01	B3
< 0.01	B4
< 0.01	B5
< 0.01	B6
< 0.01	B7
< 0.01	B8

target: T2, recombinant human CD22; experiment: flow cytometry of yeast-displayed scFv with decreasing amounts of labeled CD22

EC50 [µg/mL]	Binder
< 0.01	B9
